Like-named read-outs stand apart in the source and are kept apart here.

B3: human ULBP2-Fc (Fc fusion, UniProt Q9BZM5 26-217, looked up)
chain: GRADPHSLCYDITVIPKFRPGPRWCAVQGQVDEKTFLHYDCGNKTVTPVSPLGKKLNVTTAWKAQNPVLREVVDILTEQLRDIQLENYTPKEPLTLQARMSCEQKAEGHSSGSWQFSFDGQIFLLFDSEKRMWTTVHPGARKMKEKWENDKVVAMSFHYFSMGDCIGWLEDFLMGMDSTLEPSAGAPLAMSS
notes: Bought from R&D Systems; also called recombinant human ULBP2-Fc; not shown: Fc part (detected with anti-human Fc)
B6: human NKG2D, cell surface (receptor, UniProt P26718 1-216, looked up)
chain: MGWIRGRRSRHSWEMSEFHNYNLDLKKSDFSTRWQKQRCPVVKSKCRENASPFFFCCFIAVAMGIRFIIMVTIWSAVFLNSLFNQEVQIPLTESYCGPCPKNWICYKNNCYQFFDESKNWYESQASCMSQNASLLKVYSKEDQDLLKLVKSYHWMGLVHIPTNGSWQWEDGSILSPNLLTIIEMQKGDCALYASSFKGYIENCSTPNTYICMQRTV
notes: whole, on cells; also called cell surface human NKG2D

In one experiment the target is T1, human CD22-Fc (human, UniProt P20273 20-687).
T1 construct: Bought from R&D Systems; not shown: Fc part
T1 sequence (looked up): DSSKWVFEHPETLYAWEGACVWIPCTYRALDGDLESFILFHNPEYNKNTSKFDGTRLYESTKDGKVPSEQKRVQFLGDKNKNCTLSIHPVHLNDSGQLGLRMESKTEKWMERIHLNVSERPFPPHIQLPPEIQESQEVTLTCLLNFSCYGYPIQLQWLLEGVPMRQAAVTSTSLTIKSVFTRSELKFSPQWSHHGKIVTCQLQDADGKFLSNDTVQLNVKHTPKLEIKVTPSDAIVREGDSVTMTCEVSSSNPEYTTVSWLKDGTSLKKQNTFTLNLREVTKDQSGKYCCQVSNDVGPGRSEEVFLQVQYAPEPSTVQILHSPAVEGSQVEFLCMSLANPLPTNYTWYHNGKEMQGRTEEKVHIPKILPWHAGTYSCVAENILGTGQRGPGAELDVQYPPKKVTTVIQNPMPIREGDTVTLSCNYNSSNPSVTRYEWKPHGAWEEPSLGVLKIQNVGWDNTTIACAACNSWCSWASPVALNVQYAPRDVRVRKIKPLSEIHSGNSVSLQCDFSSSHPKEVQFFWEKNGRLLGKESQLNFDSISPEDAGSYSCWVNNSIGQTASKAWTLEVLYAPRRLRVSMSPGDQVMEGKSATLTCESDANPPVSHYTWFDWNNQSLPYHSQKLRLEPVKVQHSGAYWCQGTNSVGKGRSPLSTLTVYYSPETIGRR
In words: ELISA, protein coated at 100 ng/well, Fab detected with goat anti-human Fab-HRP, absorbance at 405 nm. A general note: ELISA stands for enzyme-linked immunosorbent assay.

The experiment “human ULBP2-Fc” addresses B3. The experiment is described as above.
Another experiment has as its target T2, mouse Fc-NKG2D (mouse, UniProt O54709 94-232, limits assumed).
T2 construct: Bought from R&D Systems; also called mouse NKG2D; not shown: Fc part
T2 sequence (looked up): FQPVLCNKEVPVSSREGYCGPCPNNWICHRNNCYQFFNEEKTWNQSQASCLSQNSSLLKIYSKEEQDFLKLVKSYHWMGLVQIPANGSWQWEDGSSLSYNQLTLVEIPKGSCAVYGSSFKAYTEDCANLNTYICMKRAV
The description is as above.

The target of another experiment is T3, BSA (bovine, UniProt P02769).
T3 construct: coated on the ELISA plate; also called bovine serum albumin
The description is as above.

The target in the next experiment is T4, human CD23 (human, UniProt P06734 150-321, limits assumed).
T4 construct: Bought
T4 sequence (looked up): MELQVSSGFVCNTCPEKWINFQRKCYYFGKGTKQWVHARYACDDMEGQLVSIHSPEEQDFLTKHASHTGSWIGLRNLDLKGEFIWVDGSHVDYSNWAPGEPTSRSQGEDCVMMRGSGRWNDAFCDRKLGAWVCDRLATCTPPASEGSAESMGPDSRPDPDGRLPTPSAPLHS
The description is as above.

Experiment [1] has as its target T5, human Fc-NKG2D (human, UniProt P26718 78-216).
T5 construct: range 78-216; Bought from R&D Systems: a recombinant fusion protein of human Fc and the extracellular domain (amino acids 78-216) of human NKG2D; also called human NKG2D (immobilized); not shown: human Fc
T5 sequence (looked up): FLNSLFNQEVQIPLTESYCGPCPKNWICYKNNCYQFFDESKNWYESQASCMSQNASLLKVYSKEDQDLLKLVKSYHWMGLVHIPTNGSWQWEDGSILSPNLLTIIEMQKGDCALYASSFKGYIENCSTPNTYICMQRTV
In words: SPR (BIAcore 2000), human Fc-NKG2D immobilized on chip; koff/kon.

The target in experiment [2] is T5, human Fc-NKG2D. In words: SPR (BIAcore 2000), human Fc-NKG2D immobilized on chip. A general note: SPR reads the build-up and loss of mass on a sensor chip optically.
The target in experiment [3] is T5, human Fc-NKG2D. In words: SPR (BIAcore 2000), human Fc-NKG2D immobilized on chip; bivalent binding (virtual affinity, avidity).
In experiment [4] the target is T5, human Fc-NKG2D. Nature of the experiment: SPR (BIAcore 2000), human Fc-NKG2D immobilized on chip; bivalent IgG.
Experiment [5] has as its target B6. Nature of the experiment: whole-cell ELISA on HEK 293F/human NKG2D, 100 ng ligand-Fc, detected with biotinylated goat anti-human Fc and streptavidin-HRP, absorbance at 405 nm [panel ULBP2].
Experiment [6] deals with T5, human Fc-NKG2D. Nature of the experiment: SPR (BIAcore 2000), human Fc-NKG2D immobilized on chip. This is another data set of the same source.
Experiment [7] has as its target T5, human Fc-NKG2D.
For experiment [8], the target named is T5, human Fc-NKG2D. The source holds these as a separate data set.
The target of the next experiment is T6, human MICB-Fc (human, UniProt Q29980 23-298, limits assumed).
T6 construct: Bought from R&D Systems; also called recombinant human MICB-Fc; not shown: Fc part (detected with anti-human Fc)
T6 sequence (looked up): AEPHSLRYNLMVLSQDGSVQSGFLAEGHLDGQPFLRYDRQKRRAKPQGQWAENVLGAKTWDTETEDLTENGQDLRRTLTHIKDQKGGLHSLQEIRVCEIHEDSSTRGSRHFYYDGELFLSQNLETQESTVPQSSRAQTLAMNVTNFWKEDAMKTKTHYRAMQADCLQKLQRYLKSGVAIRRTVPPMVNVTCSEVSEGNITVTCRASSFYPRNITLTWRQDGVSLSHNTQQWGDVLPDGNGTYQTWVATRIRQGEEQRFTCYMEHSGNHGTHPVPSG
Nature of the experiment: whole-cell ELISA on HEK 293F/human NKG2D, 100 ng ligand-Fc, detected with biotinylated goat anti-human Fc and streptavidin-HRP, absorbance at 405 nm [panel MICB].

In a further experiment the target is T7, human MICA-Fc (human, UniProt Q29983 24-307, limits assumed).
T7 construct: Bought from R&D Systems; also called recombinant human MICA-Fc; not shown: Fc part (detected with anti-human Fc)
T7 sequence (looked up): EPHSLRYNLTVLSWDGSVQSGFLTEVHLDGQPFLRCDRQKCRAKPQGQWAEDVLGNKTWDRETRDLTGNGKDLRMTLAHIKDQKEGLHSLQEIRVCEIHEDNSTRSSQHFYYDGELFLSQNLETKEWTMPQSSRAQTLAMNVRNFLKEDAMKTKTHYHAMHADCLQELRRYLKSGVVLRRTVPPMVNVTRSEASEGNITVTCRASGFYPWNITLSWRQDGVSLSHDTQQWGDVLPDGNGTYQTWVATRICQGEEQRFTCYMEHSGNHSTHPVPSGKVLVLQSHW
Nature of the experiment: whole-cell ELISA on HEK 293F/human NKG2D, 100 ng ligand-Fc, detected with biotinylated goat anti-human Fc and streptavidin-HRP, absorbance at 405 nm [panel MICA].

T3 sequence (P02769 25-607 limits assumed): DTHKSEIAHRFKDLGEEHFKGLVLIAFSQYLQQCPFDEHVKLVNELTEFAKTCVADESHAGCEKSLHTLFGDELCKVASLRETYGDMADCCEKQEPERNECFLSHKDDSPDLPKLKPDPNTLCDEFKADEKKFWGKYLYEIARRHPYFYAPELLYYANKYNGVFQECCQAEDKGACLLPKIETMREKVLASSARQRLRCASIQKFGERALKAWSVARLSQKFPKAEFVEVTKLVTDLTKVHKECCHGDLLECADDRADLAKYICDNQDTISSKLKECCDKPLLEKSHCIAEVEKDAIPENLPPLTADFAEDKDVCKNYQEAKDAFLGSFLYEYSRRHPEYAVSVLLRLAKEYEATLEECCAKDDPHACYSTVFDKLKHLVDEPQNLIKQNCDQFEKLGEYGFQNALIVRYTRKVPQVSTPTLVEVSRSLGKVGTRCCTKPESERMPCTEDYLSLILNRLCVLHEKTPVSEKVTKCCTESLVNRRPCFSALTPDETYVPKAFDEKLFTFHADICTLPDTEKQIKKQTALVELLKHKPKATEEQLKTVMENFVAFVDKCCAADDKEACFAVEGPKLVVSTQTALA

B1: KYK-1.0 Fab (Fab, V domains shown)
VH: EVQLVESGGGVVQPGGSLRLSCAASGFTFSSYGMHWVRQAPGKGLEWVAFIRYDGSNKYYADSVKGRFTISRDNSKNTKYLQMNSLRAEDTAVYYCAKDRFGYYLDYWGQGTLVTVSS
VL: QPVLTQPSSVSVAPGETARIPCGGDDIETKSVHWYQQKPGQAPVLVIYDDDDRPSGIPERFFGSNSGNTATLSISRVEAGDEADYYCQVWDDNNDEWVFGGGTQLTVL
notes: Human Fab with human constant domains (lambda light chain) and a C-terminal (His)6 tag, expressed in E. coli from pC3C-His and purified by IMAC
The koff is the first-order rate constant of dissociation. The kon is the rate constant with which the complex forms. Turning to B1, the binding result in the experiment with human CD22-Fc, in the experiment with human ULBP2-Fc, with mouse Fc-NKG2D, in the experiment with BSA and in the experiment with human CD23 was “no binding (tested: not shown)” in each case. This molecule had a Kd with human Fc-NKG2D [1] of 27 nM. Also, the koff in the experiment with human Fc-NKG2D [2] was 0.037 s⁻¹. This molecule came in with a kon in the experiment with human Fc-NKG2D [2] of 1.4e+06 M⁻¹ s⁻¹.

B2: KYK-1.0 IgG1 (antibody, V domains shown)
VH: EVQLVESGGGVVQPGGSLRLSCAASGFTFSSYGMHWVRQAPGKGLEWVAFIRYDGSNKYYADSVKGRFTISRDNSKNTKYLQMNSLRAEDTAVYYCAKDRFGYYLDYWGQGTLVTVSS
VL: QPVLTQPSSVSVAPGETARIPCGGDDIETKSVHWYQQKPGQAPVLVIYDDDDRPSGIPERFFGSNSGNTATLSISRVEAGDEADYYCQVWDDNNDEWVFGGGTQLTVL
notes: Fully human IgG1 lambda; also called KYK-1.0 IgG1λ; PIGG-KYK-1.0
As for B2, the Kd with human Fc-NKG2D [3] amounted to 1.8 nM. In the experiment with human Fc-NKG2D [4], this molecule yielded a koff of 0.00056 s⁻¹ and a kon of 310000 M⁻¹ s⁻¹.

For the molecule B3, the binding result in experiment [5] was “binds”.

B4: KYK-2.0 Fab (Fab, V domains shown)
VH: QVQLVESGGGLVKPGGSLRLSCAASGFTFSSYGMHWVRQAPGKGLEWVAFIRYDGSNKYYADSVKGRFTISRDNSKNTKYLQMNSLRAEDTAVYYCAKDRGLGDGTYFDYWGQGTTVTVSS
VL: QSALTQPASVSGSPGQSITISCSGSSSNIGNNAVNWYQQLPGKAPKLLIYYDDLLPSGVSDRFSGSKSGTSAFLAISGLQSEDEADYYCAAWDDSLNGPVFGGGTKLTVL
notes: Human Fab (lambda) with human constant domains and a C-terminal (His)6 tag, expressed in E. coli from pC3C-His and purified by IMAC
Turning to B4, the binding result with human CD22-Fc, with human ULBP2-Fc, with mouse Fc-NKG2D, with BSA and with human CD23 was “no binding (tested: not shown)” throughout. The Kd was 5.8 nM with human Fc-NKG2D [1], 1.9 to 3 nM in the experiment with human Fc-NKG2D [7] and 1.9 to 3 nM with human Fc-NKG2D [8]. For the same molecule, the “fold improvement in affinity (Kd) over KYK-1.0 Fab” value with human Fc-NKG2D [6] is roughly 4.5 fold. Further, the “fold slower dissociation compared to KYK-1.0 Fab” value in the experiment with human Fc-NKG2D [6] is roughly 8.5 fold. Moreover, the koff in the experiment with human Fc-NKG2D [7] was 0.0018 s⁻¹; with human Fc-NKG2D [2], 0.0043 s⁻¹; with human Fc-NKG2D [8] it was 0.0012 s⁻¹. In addition, the results for the association rate constant (kon) with human Fc-NKG2D [7], in the experiment with human Fc-NKG2D [2] and with human Fc-NKG2D [8] were 890000 M⁻¹ s⁻¹, 740000 M⁻¹ s⁻¹ and 450000 M⁻¹ s⁻¹, respectively.

B5: KYK-2.0 IgG1 (antibody, V domains shown)
VH: QVQLVESGGGLVKPGGSLRLSCAASGFTFSSYGMHWVRQAPGKGLEWVAFIRYDGSNKYYADSVKGRFTISRDNSKNTKYLQMNSLRAEDTAVYYCAKDRGLGDGTYFDYWGQGTTVTVSS
VL: QSALTQPASVSGSPGQSITISCSGSSSNIGNNAVNWYQQLPGKAPKLLIYYDDLLPSGVSDRFSGSKSGTSAFLAISGLQSEDEADYYCAAWDDSLNGPVFGGGTKLTVL
notes: It was biotinylated for flow cytometry on PBMC; also called KYK-2.0 IgG1λ; PIGG-KYK-2.0
For B5, the Kd with human Fc-NKG2D [3] worked out at 0.38 nM. In the experiment with human Fc-NKG2D [4], the koff worked out at 0.00012 s⁻¹ and the kon was determined as 320000 M⁻¹ s⁻¹.

Take B6: the binding result in the experiment with human MICB-Fc and with human MICA-Fc was “binds” in each case.
